Source: PMC8632965 (2021)

T1: caveolin-1 protein (UniProt Q03135 1-178)
T1 chain: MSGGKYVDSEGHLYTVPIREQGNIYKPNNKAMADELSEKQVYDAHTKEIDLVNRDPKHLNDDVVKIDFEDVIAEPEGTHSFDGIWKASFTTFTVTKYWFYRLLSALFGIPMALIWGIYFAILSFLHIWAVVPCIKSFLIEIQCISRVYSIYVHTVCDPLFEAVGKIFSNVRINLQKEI

B1: extracellular portion of CD98 (212-630 of CD98hc) (domain or fragment)
chain: ELPAQKWWHTGALYRIGDLQAFQGHGAGNLAGLKGRLDYLSSLKVKGLVLGPIHKNQKDDVAQTDLLQIDPNFGSKEDFDSLLQSAKKKSIRVILDLTPNYRGENSWFSTQVDTVATKVKDALEFWLQAGVDGFQVRDIENLKDASSFLAEWQNITKGFSEDRLLIAGTNSSDLQQILSLLESNKDLLLTSSYLSDSGSTGEHTKSLVTQYLNATGNRWCSWSLSQARLLTSFLPAQLLRLYQLMLFTLPGTPVFSYGDEIGLDAAALPGQPMEAPVMLWDESSFPDIPGAVSANMTVKGQSEDPGSLLSLFRRLSDQRSKERSLLHGDFHAFSAGPGLFSYIRHWDQNERFLVVLNFGDVGLSAGLQASDLPASASLPAKADLLLSTQPGREEGSPLELERLKLEPHEGLLLRFPYAA
B2: extracellular portion of CD147 (ECD), amino acids 22–205 (domain or fragment)
chain: AAGTVFTTVEDLGSKILLTCSLNDSATEVTGHRWLKGGVVLKEDALPGQKTEFKVDSDDQWGEYSCVFLPEPMGTANIQLHGPPRVKAVKSSEHINEGETAMLVCKSESVPPVTDWAWYKITDSEDKALMNGSESRFFVSSSQGRSELHIENLNMEADPGQYRCNGTSSKGSDQAIITLRVRSH

Tests used:
[1] = target: domain 1 of CD147 with the K63A mutation (human, UniProt P35613-2 22-205, K63A); test: SPR
caveolin-1 protein [2] = target: T1, caveolin-1 protein; test: SPR; in the presence of 5A12 antibody
[3] = target: B1; test: SPR
caveolin-1 protein [4] = target: T1, caveolin-1 protein; test: SPR

Kd [1] [nM] | Kd (caveolin-1 protein [2]) [nM] | Kd [3] [nM] | Kd (caveolin-1 protein [4]) [nM] | Binder
7490 | – | – | – | B1
– | 14.9 | 818 | 35.7 | B2
